From PMC7024214

Molecular target: elastase (UniProt P00772)

Substance	inhibition of the activity of elastase (IC50) [nM]
tutuilamide A (peptide)	4
tutuilamide B (peptide)	3.6
